Among the data in article PMC4370877 are percent inhibition of rSbp binding to immobilized rDomain-B values, retold here.

For the experiment, the target named is recombinant Small basic protein (rSbp) (S. epidermidis). Nature of the experiment: ELISA; competition; rSbp (150 μg/ml in PBS) pre-incubated with soluble rDomain-B (0.4-100 μg/ml) for 1 h at 4°C, then loaded into rDomain-B-coated wells; inhibition = (1 - A405 with rDomain-B / A405 without) x 100. (ELISA stands for enzyme-linked immunosorbent assay.)

As to “recombinantly expressed Aap domain-B (rDomain-B) (domain or fragment)”, the percent inhibition of rSbp binding to immobilized rDomain-B stood at 80%.
